The target in the experiment is NusA (E. coli (endogenous in MG1655)) (UniProt P0AFF6). The experiment can be described thus: single-molecule tracking in live cells; HaloTag fusions labelled with JFX549 in growing E. coli at 37 °C; 5 ms camera exposure; HMM fit of diffusion trajectories, 5-state models coarse-grained with a threshold at 1 µm^2/s (slow diffusion state = bound).

On to “IF2-Domain-I-HaloTag (domain or fragment)”, for which the dwell time in the slow-diffusion state turned out to be 30 ms, the occupancy in the slow state (after cell sorting by size) came out at 11% and the steady-state fraction in the slow-diffusion state was 14%.

The values are drawn from article PMC12297416.
